Measurements taken from publication PMC9704045, “Qualification of a Biolayer Interferometry Assay to Support AZD7442 Resistance Monitoring” (Microbiology Spectrum, 2022).

Molecular target: T1, wild-type HexaPro (D614) SARS-CoV-2 spike trimer (SARS-CoV-2, wild type (D614), stabilised)
T1 construct: also called wild-type trimer
Test: BLI; Octet Red384; […]; analyte ([…]; HBS-EP+ buffer; 1:1 binding model
Conditions: one partner purified

B1: tixagevimab (AZD8895), full-length IgG (antibody, V domains shown)
VH: QMQLVQSGPEVKKPGTSVKVSCKASGFTFMSSAVQWVRQARGQRLEWIGWIVIGSGNTNYAQKFQERVTITRDMSTSTAYMELSSLRSEDTAVYYCAAPYCSSISCNDGFDIWGQGTMVTVSS
VL: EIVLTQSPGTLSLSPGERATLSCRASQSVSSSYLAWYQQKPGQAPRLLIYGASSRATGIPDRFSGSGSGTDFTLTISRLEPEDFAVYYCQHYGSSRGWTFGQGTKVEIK
notes: also called component of AZD7442 (Evusheld); copies: 2 + 2
  Kd: 0.491 nM
